Measured values published in the supplement of paper PMC11246515.
± gives the standard deviation of the averaged measurements.

Experiment: total protein half-life in vivo (active degradation + dilution); higher = more stable protein
[1] = E. coli NCM3722 delta-clpP delta-lon delta-hslV, growth: N-lim chemostat, doubling time 6 h
[2] = E. coli NCM3722 delta-clpP, growth: N-lim chemostat, doubling time 6 h
[3] = E. coli NCM3722 delta-hslV, growth: N-lim chemostat, doubling time 6 h
[4] = E. coli NCM3722 delta-smpB, growth: N-lim chemostat, doubling time 6 h
[5] = wild type E. coli NCM3722, growth: C-lim chemostat, doubling time 3 h
[6] = wild type E. coli NCM3722, growth: C-lim chemostat, doubling time 12 h
[7] = wild type E. coli NCM3722, growth: N-lim chemostat, doubling time 6 h
[8] = wild type E. coli NCM3722, growth: N-lim chemostat, doubling time 12 h
[9] = wild type E. coli NCM3722, growth: P-lim chemostat, doubling time 6 h
[10] = wild type E. coli NCM3722, growth: P-lim chemostat, doubling time 12 h
[11] = wild type E. coli NCM3722, growth: C-lim chemostat, doubling time 6 h
[12] = E. coli NCM3722 delta-lon, growth: N-lim chemostat, doubling time 6 h

Sequence	total protein half-life in vivo [1]	total protein half-life in vivo [2]	total protein half-life in vivo [3]	total protein half-life in vivo [4]	total protein half-life in vivo [5]	total protein half-life in vivo [6]	total protein half-life in vivo [7]	total protein half-life in vivo [8]	total protein half-life in vivo [9]	total protein half-life in vivo [10]	total protein half-life in vivo [11]	total protein half-life in vivo [12]
MDTPRPQLLDFQFHQNNDSFTLHFQQRLILTHSKDNPCLWIGSGIADIDMFRGNFSIKDKLQEKIALTDAIVSQSPDGWLIHFSRGSDISATLNISADDQGRLLLELQNDNLNHNRIWLRLAAQPEDHIYGCGEQFSYFDLRGKPFPLWTSEQGVGRNKQTYVTWQADCKENAGGDYYWTFFPQPTFVSTQKYYCHVDNSCYMNFDFSAPEYHELALWEDKATLRFECADTYISLLEKLTALLGRQPELPDWIYDGVTLGIQGGTEVCQKKLDTMRNAGVKVNGIWAQDWSGIRMTSFGKRVMWNWKWNSENYPQLDSRIKQWNQEGVQFLAYINPYVASDKDLCEEAAQHGYLAKDASGGDYLVEFGEFYGGVVDLTNPEAYAWFKEVIKKNMIELGCGGWMADFGEYLPTDTYLHNGVSAEIMHNAWPALWAKCNYEALEETGKLGEILFFMRAGSTGSQKYSTMMWAGDQNVDWSLDDGLASVVPAALSLAMTGHGLHHSDIGGYTTLFEMKRSKELLLRWCDFSAFTPMMRTHEGNRPGDNWQFDGDAETIAHFARMTTVFTTLKPYLKEAVALNAKSGLPVMRPLFLHYEDDAHTYTLKYQYLLGRDILVAPVHEEGRSDWTLYLPEDNWVHAWTGEAFRGGEVTVNAPIGKPPVFYRADSEWAALFASLKSI	5.5 h	4.66 ± 0.079 h	4.79 ± 0.52 h	4.78 ± 0.19 h	3.06 ± 0.37 h	12.6 ± 3.2 h	4.02 h	7.22 h	5.4 ± 0.092 h	10.4 ± 0.25 h		
MDVQQFFVVAVFFLIPIFCFREAWKGWRAGAIDKRVKNAPEPVYVWRAKNPGLFFAYMVAYIGFGILSIGMIVYLIFYR	2.64 h		3.67 h	4.42 h					4.74 h	8.43 h	1.84 h	
MDWLAKYWWILVIVFLVGVLLNVIKDLKRVDHKKFLANKPELPPHRDFNDKWDDDDDWPKKDQPKK [Q2EET2]	4.44 ± 0.075 h	4.57 ± 1.7 h		4.97 ± 0.94 h	3.28 ± 0.98 h	6.37 h	5.06 h	9.68 ± 5.2 h	3.81 h	7.42 ± 0.16 h	5.63 ± 0.88 h	5.94 ± 1.8 h
MDYEFLRDITGVVKVRMSMGHEVVGHWFNEEVKENLALLDEVEQAAHALKGSERSWQRAGHEYTLWMDGEEVMVRANQLEFAGDEMEEGMNYYDEESLSLCGVEDFLQVVAAYRNFVQQK [P0A8E5]	4.89 ± 0.087 h		1.63 ± 0.034 h	1.97 ± 0.039 h	2.18 ± 0.056 h	6.328 ± 0.025 h	1.78 h	2.8 h	2.44 ± 0.26 h	4.45 ± 0.61 h	3.78 ± 0.4 h	2 ± 0.21 h
MDYFTLFGLPARYQLDTQALSLRFQDLQRQYHPDKFASGSQAEQLAAVQQSATINQAWQTLRHPLMRAEYLLSLHGFDLASEQHTVRDTAFLMEQLELREELDEIEQAKDEARLESFIKRVKKMFDTRHQLMVEQLDNETWDAAADTVRKLRFLDKLRSSAEQLEEKLLDF [P0A6L9]	4.89 ± 0.7 h	3.99 ± 0.75 h	3.26 ± 0.27 h	3.04 ± 0.18 h	2.9 ± 0.23 h	9.84 ± 1 h	3.07 ± 0.24 h	4.57 ± 0.19 h	5.45 ± 0.78 h	9.39 ± 0.82 h	4.74 ± 0.099 h	4.06 ± 0.18 h
MDYRKIIKEIGRGKNHARDLDRDTARGLYAHMLNGEVPDLELGGVLIALRIKGEGEAEMLGFYEAMQNHTIKLTPPAGKPMPIVIPSYNGARKQANLTPLLAILLHKLGFPVVVHGVSEDPTRVLTETIFELMGITPTLHGGQAQAKLDEHQPVFMPVGAFCPPLEKQLAMRWRMGVRNSAHTLAKLATPFAEGEALRLSSVSHPEYIGRVAKFFSDIGGRALLMHGTEGEVYANPQRCPQINLIDREGMRVLYEKQDTAGSELLPQAKDPETTAQWIERCLAGSEPIPESLKIQMACCLVATGEAATISDGLARVNQAF	4.81 ± 0.7 h	4.14 ± 0.24 h	4.41 ± 0.12 h	4.44 ± 0.42 h	3.09 ± 0.67 h	9.72 ± 1.2 h	4.54 ± 0.17 h	7.03 ± 0.37 h	5.83 ± 0.098 h	11.7 ± 0.24 h	5.84 ± 0.53 h	5.22 ± 0.37 h
MEAIKGSDVNVPDAVFAWMLDGRGGVKPLENTDVIDEAHPCWLHLNYVHHDSAQWLATTPLLPNNVRDALAGESTRPRVSRLGEGTLITLRCINGSTDERPDQLVAMRVYMDGRLIVSTRQRKVLALDDVVSDLEEGTGPTDCGGWLVDVCDALTDHSSEFIEQLHDKIIDLEDNLLDQQIPPRGFLALLRKQLIVMRRYMAPQRDVYARLASERLPWMSDDQRRRMQDIADRLGRGLDEIDACIARTGVMADEIAQVMQENLARRTYTMSLMAMVFLPSTFLTGLFGVNLGGIPGGGWQFGFSIFCILLVVLIGGVALWLHRSKWL	6.29 ± 0.86 h	5.99 ± 0.61 h	5.56 ± 0.95 h	5.71 ± 0.2 h	3.06 ± 0.47 h	11.5 ± 0.33 h	6.07 ± 0.2 h	11.9 ± 0.9 h	5.31 ± 0.072 h	8.98 ± 0.42 h	6.04 ± 0.35 h	6.34 ± 0.75 h
